Measurements reported in the nanobody polyreactivity screen of Harvey et al. (2022).

test: yeast display, Sf9 membrane polyspecificity reagent, FACS + sequencing; frameworks hold sequencing errors
Outline: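 Genes from sorted yeast were amplified by colony PCR, read by MiSeq 2 × 250 sequencing and filtered on CDR length. These cells carried a synthetic nanobody library in Saccharomyces cerevisiae BJ5465 and were sorted by FACS into low and high (top ~1%) gates on anti-HA and streptavidin fluorescence. Polyreactivity is labelled according to the gate of origin.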

| Sequence | polyreactivity (PSR sort gate) |
| --- | --- |
| QVQLVESGGGLVQAGGSLRLSCAASGRIFYSYAMGWYRQAPGKERELVAAISSAGSTYYADSVKGRFTISRDNAKNTVYLQMNSLKPEDTAVYYCAAGVTYYRYVSYVGPVPLGFDYWGQGTQVTVSS | high polyreactivity |
| QVQLVESGGGLVQAGGSLRLSCAASGRIFYSYAMGWYRQAPGKERELVAALYSDGSTDYADSVKGRFTISRDNAKNTVYLQMNSLTPEDTAVYFCAADWGWRYVLPVGWFRYGYWGQGTQVTVSS | low polyreactivity |
| QVQLVESGGGLVQAGGSLRLSCAASGRIFYSYAMGWYRQAPGKERELVASITSSGGSTYADSVKGRFTISRDNAKNTVYLQMNSLKPEDTAVYYFDYWGQGTQVTVSS | low polyreactivity |
| QVQLVESGGGLVQAGGSLRLSCAASGRIFYSYAMGWYRQAPGKERELVATITRRGSSTYYADSVKGRFTISRDNAKNTVYLQMNSLKPEDTAVYYCNAVGVRRAIGYPSQTEYGYWGQGTQVTVSS | high polyreactivity |
| QVQLVESGGGLVQAGGSLRLSCAASGRIFYSYGMGWYRQAPGKERELVASITISGGGSTYYADSVKGRFTISRDNAKNTVYLQMNSLKPEDTAVYYCAATRTVWKYIYDYWGQGTQVTVSS | high polyreactivity |
| QVQLVESGGGLVQAGGSLRLSCAASGRIFYTNAMGWYRQAPGKERELVAVISWGGDTTYYADSVKGRFTISRDNATNTVYLQMNSLKPEDTAVYYCNADWGPTYEIYDSWGQGTQVTVSS | low polyreactivity |
| QVQLVESGGGLVQAGGSLRLSCAASGRIFYTYAMGWYRQAPGKERELVAAINRSGSSTYYADSVKGRFTISRDNAKNTVYLQMNSLKPEDTAVYYCNAQSYRYYGWVLTDVDYWGQGTQVTVSS | low polyreactivity |
| QVQLVESGGGLVQAGGSLRLSCAASGRIFYTYAMGWYRRAPGKERELVAAIRISGVRTYYADSVKGRFTISRDNAKNTVYLQMNSLKPEDTAVYYCAADSYGDRMDYWGQGTQVTVSS | high polyreactivity |
| QVQLVESGGGLVQAGGSLRLSCAASGRIFYTYAMGWYRTAPGKERELVAAISSRTGSTYYADSVKWRFTISRDNAKNTVYLQMNSLKPEDTAVYYCNAYRLRYGYDYWGQGTQVTVSS | high polyreactivity |
| QVQLVESGGGLVQAGGSLRLSCAASGRIFYTYVMGWYIQAPGKERELVASISSSGGSTNYADSVKGRFTISRDNAKNTVYLQMNSLKPEDTAVYYCNKDYIHVSYREDYWGQGTQVTVSS | low polyreactivity |
| QVQLVESGGGLVQAGGSLRLSCAASGRIFYVNAMGWYRQAPGKERELVATIRYSGGSTYYADSVKGRFTISRDNAKNTVYLQMNSLKPEDTAVYYCAARVADYYPGRGYGYWGQGTQVTVSS | high polyreactivity |
| QVQLVESGGGLVQAGGSLRLSCAASGRIFYVYAMGWYRQAPGKERELVATIDWSGGSTYYADSVKGRFTISRDNAKITVYLQMNSLKPEDTAVYYCAAYYTSYWGYDYDYWGQGTQVTVSS | low polyreactivity |
| QVQLVESGGGLVQAGGSLRLSCAASGRIFYWNAMGWYRQAHGKERELVAAISWSGGSTYYADSVKGRFTISRDNAKNTVYLQMNSLKPEDTAVYYCAADGGRRTYYVKYDYWGQGTQVTASS | low polyreactivity |
| QVQLVESGGGLVQAGGSLRLSCAASGRIFYWNAMGWYRQAPGKEREFVAAISWSGGSTYADSVKGRFTISRDNAKNTVYLQMNSLKPEDTAVYYCATRVYRSFRAYDYWGQGTQVTVSS | high polyreactivity |
| QVQLVESGGGLVQAGGSLRLSCAASGRIFYWNPMGWYRQAHGKERELVAAISWSGGSTYYADSVKGRFTISRDNAKNTVYLQMNRLKPEDTAVYYCARKYRSPISALMTGDYWGQGTQVTVSS | low polyreactivity |
| QVQLVESGGGLVQAGGSLRLSCAASGRIFYWYGMGWYRQAPGKERELVAGITYSASRTYYADSVKGRFTISRDNVKNTVYLQMNCMKPEVTAVYYCAAGRYHRDDGYDYWGQGTQVTVSS | low polyreactivity |
| QVQLVESGGGLVQAGGSLRLSCAASGRIFYYAMGWYRQAPGKEREFVAAISGSGGSTNYADSVKGRFTISRDNAKNTVYLQMNSLKPEDTAVYYCNAESWSWGFIYEYEYWGQGTQVTVSW | high polyreactivity |
| QVQLVESGGGLVQAGGSLRLSCAASGRIFYYNAMGWYRQAPGKERELVAAIRSSGGTTYYADSVKGRFTISRDNAKNTVYLQMNSLKPEDTAVYYCNARYWVYYVYEYDSWGQGTQVTVSS | low polyreactivity |
| QVQLVESGGGLVQAGGSLRLSCAASGRIFYYNAMGWYRQAPGKERELVAAITFDGGRTYYADSVKGRFTISRDNAKNTVYLQMNSLKPEDTAVYYCAASWYYSDFYMYYWGQGTQVTVSS | high polyreactivity |
| QVQLVESGGGLVQAGGSLRLSCAASGRIFYYNAMGWYRQAPGKERELVAAITKSSGSTYYADSVKGRFTISRDNAKNTVFLQMNSLKPEDTAVYYCAKDKYLVFGFVGGDYWGQGTQVTVSS | low polyreactivity |
| QVQLVESGGGLVQAGGSLRLSCAASGRIFYYNAMGWYRQAPGKERELVAAITRTGGSTYYADSVKGRFTISRDNAKNTVYLQMNSLKPEDTAVYYCAAYGGRDIRFEYWGQGTQVTVSS | high polyreactivity |
| QVQLVESGGGLVQAGGSLRLSCAASGRIFYYNAMGWYRQAPGKERELVARISSGGSTNYADSVKGRFTISRDNAKNTVYLQMNSLKPEDTAVYYCAVAKGGLAWGVGRAGRYDFWGQGTQVTVSS | low polyreactivity |

| Sequence | polyreactivity (PSR sort gate) |
| --- | --- |
| QVQLVESGGGLVQAGGSLRLSCAASGRIFYYNAMGWYRQSPGKEREFVAAISSGGGSTYYADSVKGRFTISRDNAKNTVYLQMNSLKPEDTAVYYCAAKRQFYRGPAQALSGYGYWGQGTQVTVSS | high polyreactivity |
| QVQLVESGGGLVQAGGSLRLSCAASGRIFYYNDMGWYRQAPGKERELVAAITWTDDGTYYADSVKGRFTISRDNAKNTVYLQMNSLKPEDTAVYYCAAESFYGFEYWGQGTQVTVSS | low polyreactivity |
| QVQLVESGGGLVQAGGSLRLSCAASGRIFYYNPMGWYRQAPAKERELVAAISWDGGSTYYADSVKGRFTISRDNAKNTFYLEMNCLKAEDTAVYYCAVDLYGTWYPTWFNYWGQGTQVTVSS | low polyreactivity |
| QVQLVESGGGLVQAGGSLRLSCAASGRIFYYYAMGGYRQAPWKERELVATISRAGITNYADSVKGRFTISRANAKNTVYLQMNSLKPEDTAVYYCAATFYPWRYHYEYWGQGTQVTVSS | high polyreactivity |
| QVQLVESGGGLVQAGGSLRLSCAASGRIFYYYAMGWSRPAPGTERELVASITFSGGRTFYADSVKGRFTISRDNAKKTVYLQMNSLKPEDTAVYYCAAVRWGRRSGGLVAEYDYWGQGTQVNVSS | high polyreactivity |
| QVQLVESGGGLVQAGGSLRLSCAASGRIFYYYAMGWYRQAPGKERELVAAISQRGGRTYYADSVKGRFTISRDNAKNTVYLQMNSLKPEDTAVYYCNDYPVYGRYTHYGYGHWGQGTQVTVSS | high polyreactivity |
| QVQLVESGGGLVQAGGSLRLSCAASGRIFYYYAMGWYRQAPGKERELVAAISTDVGGTFYAESVKGRFTISRANAKNTVYLQMNSLKPEDTAVDYCAVEYLWHGDEHDYWGQGTQVTVSS | high polyreactivity |
| QVQLVESGGGLVQAGGSLRLSCAASGRIFYYYAMGWYRQAPGKERELVADITSGGSTNYADSVKGRFTISRDNAKNTVYLQMNSLKPEDTAVYYCAAEYGDVYVWTYDYWGQGTQVTVSS | high polyreactivity |
| QVQLVESGGGLVQAGGSLRLSCAASGRIFYYYAMGWYRQAPGKERELVASINSVGTTTYADSVKGRFTISRDNAKNTVYLKMNSLKPEDTAVYYCARDTGCIYYDGYAYDYWGQGTEVTVSS | low polyreactivity |
| QVQLVESGGGLVQAGGSLRLSCAASGRIFYYYGMGWYRQAPGKERELVAAISNGGRTYYADSVKGRFTISRDNAKNTVYLQMNSLKPEDTAVYYCAALTRGRGGYDYWGLGTQVTVSS | high polyreactivity |
| QVQLVESGGGLVQAGGSLRLSCAASGRIFYYYVMGWYRQAPGKEREFVAAISWSASNTYYADSVKGRFTISRDNAKNTVYLQMNSLKPEDTAVYYCAADTLWLDWQGYDYWGQGTQVTVSS | low polyreactivity |
| QVQLVESGGGLVQAGGSLRLSCAASGRIGKYAMGWYRQAPGKERELVAAITSGGSTTYADSVKGRITISRDNAKNTVYLQMNSLNPEDTAVYYCKALRRARYTRKGYEYWGQGTQVTVSS | high polyreactivity |
| QVQLVESGGGLVQAGGSLRLSCAASGRIGTNAMGCYRQAPGKERELVAAISKRGGSTHYADSVKGRFTISRDNAKNTVYLQMNSMKPEDTAVYYCAASRAVGYDYWGQGTEVTVSS | high polyreactivity |
| QVQLVESGGGLVQAGGSLRLSCAASGRIGTYAMGWYRQAPGKERELVAGIRSGGSTYYADSVKGRFTISRDNAKNTVYLQLNSLKPEDTAVYYCAADRGYRGATGKYDSWGQGTQVTVSS | high polyreactivity |
| QVQLVESGGGLVQAGGSLRLSCAASGRIIARYTMGWYRQAPGKERELVAAITRGSSTYYADSVKGRFTISRDNALNTVFLHMNSQKPEDTAVNYCAKVYVVKSRYVYWGKGTQVTVSS | low polyreactivity |
| QVQLVESGGGLVQAGGSLRLSCAASGRIIDANVMGWYRQAPGKERELVAAISASAGSTSYADSVKGRFTISRDNAKNTVYLQMNSLKPEDTAVYYCAADPYQLWHYYYFGMDYWGQGTQVTVSS | low polyreactivity |
| QVQLVESGGGLVQAGGSLRLSCAASGRIIDTYAMGWYRQAPGKERELFASISRSDTSTSYADSVKGRFTISRDNAKNTVYLQMNCLKPEDTAVYYCNKDGVTVTNSKRYDYLGQGTQVTVSS | low polyreactivity |
| QVQLVESGGGLVQAGGSLRLSCAASGRIIFIYAMGWYRQPPGKERELVAGINRTGGSTYYADSVKGRFTISRDNAKNTVYLQMNSLKPEDTAVYYCAAVSYYASDYRYDYWGQGTQVTVSS | low polyreactivity |
| QVQLVESGGGLVQAGGSLRLSCAASGRIIGAYAMGWYRQAPGKERELVAAITSRGGNTYYADSVKGRITISRDNAKNTVYFQMNSLKPEDTAVYYCAAGVRAYNWCEYDYWGQGTQVTVSS | low polyreactivity |
| QVQLVESGGGLVQAGGSLRLSCAASGRIIGRYVRGWYRQAPGKERELVAAITRGGSTNYADSVKGRYTISRDNAKNTVYLQMNSLKPEDTAVYYCARAYSTVNRYSMYYWGQGTQVTVSS | high polyreactivity |
| QVQLVESGGGLVQAGGSLRLSCAASGRIIGTNAMGWYRQAPGKEREMVAAITWRGGSTYYADSVKGRFTYSRDNAKNTVYLQKNSLKPEDTAVYYCNKDPPRFSGLDENDWGQGTQVTVSS | low polyreactivity |
